For experiment [1], the target named is T1, Int280 of EHEC (C-terminal receptor-binding domain of intimin), His-tagged (enterohemorrhagic E. coli (EHEC) O157:H7, UniProt P43261 655-934).
T1 construct: also called Int280_(EHEC)
T1 sequence: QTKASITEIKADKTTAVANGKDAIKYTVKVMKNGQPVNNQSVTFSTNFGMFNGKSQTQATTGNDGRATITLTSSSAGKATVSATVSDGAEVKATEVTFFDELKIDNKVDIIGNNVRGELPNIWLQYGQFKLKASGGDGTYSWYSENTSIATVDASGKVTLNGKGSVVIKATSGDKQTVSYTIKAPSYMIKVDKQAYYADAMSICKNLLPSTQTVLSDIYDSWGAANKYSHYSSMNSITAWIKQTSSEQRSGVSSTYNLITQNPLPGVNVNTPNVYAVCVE
Briefly: SPR; BiaCore3000; biotinylated TirM_(EHEC) immobilised on a Streptavidin SA chip at 150 RU; Int280 as analyte at 30 ul/min in HEPES-buffer; 1:1 Langmuir model; KD from koff/kon. Particulars: both partners purified. A general note: SPR reads the build-up and loss of mass on a sensor chip optically.

The target of another experiment is T2, Tir TirM (Escherichia coli, UniProt P0DJ92).
T2 chain: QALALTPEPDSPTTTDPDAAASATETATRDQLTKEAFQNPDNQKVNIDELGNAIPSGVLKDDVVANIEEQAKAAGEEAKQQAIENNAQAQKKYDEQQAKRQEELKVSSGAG
Briefly: SPR.

B1: Biotinylated TirM of EHEC, His-tagged (domain or fragment)
chain: T2 chain
modifications: biotin (Biotinamidocaproate N-hydroxysuccinimide ester)
notes: also called biotinylated TirM_(EHEC)
Usually Kd stands for the constant that tells how readily two partners part at equilibrium. High values mean lower affinity, low ones higher affinity. A word on the koff: it is the first-order rate constant of dissociation. High values mean fast dissociation, low ones slow dissociation. In general, kon refers to a measure of how fast the partners come together. A lower kon goes with slower complex formation. In experiment [1], B1 came in with an equilibrium dissociation constant (Kd) of 48.1 nM, an off-rate constant (koff) of 0.0375 s⁻¹ and a kon of 785000 M⁻¹ s⁻¹.

B2: Intimin Int280 Int280 (protein)
chain: T1 sequence
Consider B2, for which the Kd in the experiment with Tir TirM was ~40 nM.

Source of the values: PMC6738647, “A nanobody targeting the translocated intimin receptor inhibits the attachment of enterohemorrhagic E. coli to human colonic mucosa” (PLoS Pathogens, 2019).
